Assay [1] has as its target EBV gB protein ectodomain (24-683 aa) of the substituted M81 strain gB protein, C-terminal 6×His tag (EBV M81 strain) (UniProt P0C762). Nature of the assay: competition ELISA on coated gB: unlabelled primary antibody at 10 µg/mL, then HRP-labelled 3A3 as secondary. (ELISA stands for enzyme-linked immunosorbent assay.)
The target is the same in assay [2]. Nature of the assay: competition ELISA on coated gB: unlabelled primary antibody at 10 µg/mL, then HRP-labelled 3A5 as secondary.
Assay [3] has the same target. The assay can be described thus: competition ELISA on coated gB: unlabelled primary antibody at 10 µg/mL, then HRP-labelled AMMO5 as secondary.

For the substance mouse monoclonal antibody 72A1, the competition rate in assay [1] is -1.4%; in assay [2], 8%; in assay [3] it was -9.3%.

Source of the values: patent publication US20240123058A1.
